Data taken from patent US20230212319A1, “NOVEL ANTIGEN BINDING DOMAINS AND SYNTHETIC ANTIGEN RECEPTORS INCORPORATING THE SAME” (University of Southern California, priority 2020, published 2023).

What follows are molecules tested on L363 cells (assay: JNG assay, co-culture with L363 cells). Settings: co-culture with L363.
Type: cell-based
Procedure, shortened: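 Jurkat NFAT-GFP (JNG) cells stably transduced with SARs by lentivirus, with drug selection where the construct carried a resistance gene, then co-cultured with target cells at E:T ~1:2 for ~4–18 h. % GFP-positive cells measured by FACS against parental JNG; +/- to 5+ correspond to ~5–50% GFP-positive.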

Molecule | NFAT-GFP ASSAY: L363
22090 (protein) MALPVTALLLPLALLLHAARPQLQLQESGPGLVKPSETLSLTCTVSGDSISSGDYYWGWIRQPPGKGLEWIGHIYYSGVTYYNPSLKSRVTISVDTSRNQFSLKLSSVTAADTAVYYCTREDSSNWRSRGQGTLVTVSSLEDKTHTCPPCPAGRADCGFTSESYQQGVLSATILYEILLGKATLYAVLVSALVLMAMVKRKDSRGRAKRSGSGATNFSLLKQAGDVEENPGPTSMDWIWRILFLVGAATGAHSFEVQLLESGGGLIQPGGSLRLSCAASGFTFSSHAMTWVRQAPGKGLEWVSAISGSGDYTHYADSVKGRFTISRDNSKNTVYLQMNSLRAEDSAVYYCAKDEDGGSLLGHRGQGTLVTVSSTRIQNPDPAVYQLRDSKSSDKSVCLFTDFDSQTNVSQSKDSDVYITDKCVLDMRSMDFKSNSAVAWSNKSDFACANAFNNSIIPEDTFFPSPESSCDVKLVEKSFETDTNLNFQNLSVIGFRILLLKVAGFNLLMTLRLWSSRAKRSGSGVKQTLNFDLLKLAGDVESNPGPSRGHMTEYKPTVRLATRDDVPRAVRTLAAAFADYPATRHTVDPDRHIERVTELQELFLTRVGLDIGKVWVADDGAAVAVWTTPESVEAGAVFAEIGPRMAELSGSRLAAQQQMEGLLAPHRPKEPAWFLATVGVSPDHQGKGLGSAVVLPGVEAAERAGVPAFLETSAPRNLPFYERLGFTVTADVEVPEGPRTWCMTRKPGA | 3+ (refer to approximately 5%, 10%, 20%, 30%, 40% and 50% GFP positive cells)
22075 (protein) MALPVTALLLPLALLLHAARPQVQLVESGGGLVQPGGSLRLSCAASGFTFTNHAMSWVRQAPGKGLELVSSISGNGRTTYYADSVKGRFTISRDISKNTLDLQMNSLRAEDTAVYYCAKDGGETLVDSRGQGTLVTVSSLEGQPKANPTVTLFPPSSEELQANKATLVCLISDFYPGAVTVAWKADGSPVKAGVETTKPSKQSNNKYAASSYLSLTPEQWKSHRSYSCQVTHEGSTVEKTVAPTECSGRADCGFTSESYQQGVLSATILYEILLGKATLYAVLVSALVLMAMVKRKDSRGRAKRSGSGATNFSLLKQAGDVEENPGPTSMDWIWRILFLVGAATGAHSFEEVQLLESGGGLVQPGGSLRLSCAASGFTFSSYAMSWVRQAPGKGLEWVSSISGSGDYIYYADSVKGRFTISRDISKNTLYLQMNSLRAEDTAVYYCAKEGTGANSSLADYRGQGTLVTVSSTRIQNPDPAVYQLRDSKSSDKSVCLFTDFDSQTNVSQSKDSDVYITDKCVLDMRSMDFKSNSAVAWSNKSDFACANAFNNSIIPEDTFFPSPESSCDVKLVEKSFETDTNLNFQNLSVIGFRILLLKVAGFNLLMTLRLWSSRAKRSGSGVKQTLNFDLLKLAGDVESNPGPSRGHMTEYKPTVRLATRDDVPRAVRTLAAAFADYPATRHTVDPDRHIERVTELQELFLTRVGLDIGKVWVADDGAAVAVWTTPESVEAGAVFAEIGPRMAELSGSRLAAQQQMEGLLAPHRPKEPAWFLATVGVSPDHQGKGLGSAVVLPGVEAAERAGVPAFLETSAPRNLPFYERLGFTVTADVEVPEGPRTWCMTRKPGA | +/- (refer to approximately 5%, 10%, 20%, 30%, 40% and 50% GFP positive cells)
22098 (protein) MALPVTALLLPLALLLHAARPQVQLVESGGGLVQPGGSLRLSCAASGFTFTNHAMSWVRQAPGKGLELVSSISGNGRTTYYADSVKGRFTISRDISKNTLDLQMNSLRAEDTAVYYCAKDGGETLVDSRGQGTLVTVSSLEGQPKANPTVTLFPPSSEELQANKATLVCLISDFYPGAVTVAWKADGSPVKAGVETTKPSKQSNNKYAASSYLSLTPEQWKSHRSYSCQVTHEGSTVEKTVAPTECSPIKTDVITMDPKDNCSKDANDTLLLQLTNTSAYYMYLLLLLKSVVYFAIITCCLLRRTAFCCNGEKSRAKRSGSGATNFSLLKQAGDVEENPGPTSMDWIWRILFLVGAATGAHSFEEVQLLESGGGLVQPGGSLRLSCAASGFTFSSYAMSWVRQAPGKGLEWVSSISGSGDYIYYADSVKGRFTISRDISKNTLYLQMNSLRAEDTAVYYCAKEGTGANSSLADYRGQGTLVTVSSTRASTKGPSVFPLAPSSKSTSGGTAALGCLVKDYFPEPVTVSWNSGALTSGVHTFPAVLQSSGLYSLSSVVTVPSSSLGTQTYICNVNHKPSNTKVDKRVEPKSCEVKTDSTDHVKPKETENTKQPSKSCHKPKAIVHTEKVNMMSLTVLGLRMLFAKTVAVNFLLTAKLFFLRAKRSGSGVKQTLNFDLLKLAGDVESNPGPSRGHMTEYKPTVRLATRDDVPRAVRTLAAAFADYPATRHTVDPDRHIERVTELQELFLTRVGLDIGKVWVADDGAAVAVWTTPESVEAGAVFAEIGPRMAELSGSRLAAQQQMEGLLAPHRPKEPAWFLATVGVSPDHQGKGLGSAVVLPGVEAAERAGVPAFLETSAPRNLPFYERLGFTVTADVEVPEGPRTWCMTRKPGA | L363 (4+) (refer to approximately 5%, 10%, 20%, 30%, 40% and 50% GFP positive cells)
22063 (protein) MALPVTALLLPLALLLHAARPQVQLVESGGGLVQPGGSLRLSCAASGFTFTNHAMSWVRQAPGKGLELVSSISGNGRTTYYADSVKGRFTISRDISKNTLDLQMNSLRAEDTAVYYCAKDGGETLVDSRGQGTLVTVSSLEAAAKEDLKNVFPPEVAVFEPSEAEISHTQKATLVCLATGFYPDHVELSWWVNGKEVHSGVCTDPQPLKEQPALNDSRYCLSSRLRVSATFWQNPRNHFRCQVQFYGLSENDEWTQDRAKPVTQIVSAEAWGRADCGFTSESYQQGVLSATILYEILLGKATLYAVLVSALVLMAMVKRKDSRGRAKRSGSGATNFSLLKQAGDVEENPGPTSMDWIWRILFLVGAATGAHSFEEVQLLESGGGLVQPGGSLRLSCAASGFTFSSYAMSWVRQAPGKGLEWVSSISGSGDYIYYADSVKGRFTISRDISKNTLYLQMNSLRAEDTAVYYCAKEGTGANSSLADYRGQGTLVTVSSTRIQNPDPAVYQLRDSKSSDKSVCLFTDFDSQTNVSQSKDSDVYITDKCVLDMRSMDFKSNSAVAWSNKSDFACANAFNNSIIPEDTFFPSPESSCDVKLVEKSFETDTNLNFQNLSVIGFRILLLKVAGFNLLMTLRLWSSRAKRSGSGVKQTLNFDLLKLAGDVESNPGPSRGHMTEYKPTVRLATRDDVPRAVRTLAAAFADYPATRHTVDPDRHIERVTELQELFLTRVGLDIGKVWVADDGAAVAVWTTPESVEAGAVFAEIGPRMAELSGSRLAAQQQMEGLLAPHRPKEPAWFLATVGVSPDHQGKGLGSAVVLPGVEAAERAGVPAFLETSAPRNLPFYERLGFTVTADVEVPEGPRTWCMTRKPGA | L363 (+/-) (refer to approximately 5%, 10%, 20%, 30%, 40% and 50% GFP positive cells)
22064 (protein) MALPVTALLLPLALLLHAARPQVQLVESGGGLVQPGGSLRLSCAASGFTFTNHAMSWVRQAPGKGLELVSSISGNGRTTYYADSVKGRFTISRDISKNTLDLQMNSLRAEDTAVYYCAKDGGETLVDSRGQGTLVTVSSLEGGGGSGGGGSGGGGSVEDLKNVFPPEVAVFEPSKAEIAHTQKATLVCLATGFYPDHVELSWWVNGKEVHSGVCTDPQPLKEQPALNDSRYCLSSRLRVSATFWQNPRNHFRCQVQFYGLSENDEWTQDRAKPVTQIVSAEAWGRADCGITSASYHQGVLSATILYEILLGKATLYAVLVSALVLMAMVKRKDSRGRAKRSGSGATNFSLLKQAGDVEENPGPTSMDWIWRILFLVGAATGAHSFEEVQLLESGGGLVQPGGSLRLSCAASGFTFSSYAMSWVRQAPGKGLEWVSSISGSGDYIYYADSVKGRFTISRDISKNTLYLQMNSLRAEDTAVYYCAKEGTGANSSLADYRGQGTLVTVSSTRIQNPDPAVYQLRDSKSSDKSVCLFTDFDSQTNVSQSKDSDVYITDKCVLDMRSMDFKSNSAVAWSNKSDFACANAFNNSIIPEDTFFPSPESSCDVKLVEKSFETDTNLNFQNLSVIGFRILLLKVAGFNLLMTLRLWSSRAKRSGSGVKQTLNFDLLKLAGDVESNPGPSRGHMTEYKPTVRLATRDDVPRAVRTLAAAFADYPATRHTVDPDRHIERVTELQELFLTRVGLDIGKVWVADDGAAVAVWTTPESVEAGAVFAEIGPRMAELSGSRLAAQQQMEGLLAPHRPKEPAWFLATVGVSPDHQGKGLGSAVVLPGVEAAERAGVPAFLETSAPRNLPFYERLGFTVTADVEVPEGPRTWCMTRKPGA | L363 (+/-) (refer to approximately 5%, 10%, 20%, 30%, 40% and 50% GFP positive cells)
22099 (protein) MALPVTALLLPLALLLHAARPQVQLVESGGGLVQPGGSLRLSCAASGFTFTNHAMSWVRQAPGKGLELVSSISGNGRTTYYADSVKGRFTISRDISKNTLDLQMNSLRAEDTAVYYCAKDGGETLVDSRGQGTLVTVSSLEGQPKANPTVTLFPPSSEELQANKATLVCLISDFYPGAVTVAWKADGSPVKAGVETTKPSKQSNNKYAASSYLSLTPEQWKSHRSYSCQVTHEGSTVEKTVAPTECSGRADCGFTSESYQQGVLSATILYEILLGKATLYAVLVSALVLMAMVKRKDSRGRAKRSGSGATNFSLLKQAGDVEENPGPTSMDWIWRILFLVGAATGAHSFEEVQLLESGGGLVQPGGSLRLSCAASGFTFSSYAMSWVRQAPGKGLEWVSSISGSGDYIYYADSVKGRFTISRDISKNTLYLQMNSLRAEDTAVYYCAKEGTGANSSLADYRGQGTLVTVSSTRASTKGPSVFPLAPSSKSTSGGTAALGCLVKDYFPEPVTVSWNSGALTSGVHTFPAVLQSSGLYSLSSVVTVPSSSLGTQTYICNVNHKPSNTKVDKRVEPKSCIPEDTFFPSPESSCDVKLVEKSFETDTNLNFQNLSVIGFRILLLKVAGFNLLMTLRLWSSRAKRSGSGVKQTLNFDLLKLAGDVESNPGPSRGHMTEYKPTVRLATRDDVPRAVRTLAAAFADYPATRHTVDPDRHIERVTELQELFLTRVGLDIGKVWVADDGAAVAVWTTPESVEAGAVFAEIGPRMAELSGSRLAAQQQMEGLLAPHRPKEPAWFLATVGVSPDHQGKGLGSAVVLPGVEAAERAGVPAFLETSAPRNLPFYERLGFTVTADVEVPEGPRTWCMTRKPGA | L363 (2+) (refer to approximately 5%, 10%, 20%, 30%, 40% and 50% GFP positive cells)
